Measured values as given in article PMC6005192.

Target: bacteriophage λ holin S105, allele S105τ94 (internal G2H6G2 tag) (bacteriophage λ)
Test: cryo-EM structure

bacteriophage λ holin S105, allele S105τ94 (internal G2H6G2 tag) (natural protein)
stoichiometry N: 72
